Source: patent US20220073598A1 (KYMAB, published 2022)

T1: recombinant human BMP6 (Peprotech 120-06) (human, UniProt P22004 397-513)
T1 construct: Biotinylated and immobilised for SPR; also called hBMP6; Bone Morphogenetic Protein 6
T1 sequence: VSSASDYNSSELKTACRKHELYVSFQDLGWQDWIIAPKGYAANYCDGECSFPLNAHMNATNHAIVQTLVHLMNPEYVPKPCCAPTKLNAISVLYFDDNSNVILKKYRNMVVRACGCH

T2: human BMP6 (Peprotech), reduced monomer on SDS-PAGE (human, UniProt P22004 397-513)
T2 construct: also called reduced BMP6 monomers; 18 kDa monomer
T2 sequence: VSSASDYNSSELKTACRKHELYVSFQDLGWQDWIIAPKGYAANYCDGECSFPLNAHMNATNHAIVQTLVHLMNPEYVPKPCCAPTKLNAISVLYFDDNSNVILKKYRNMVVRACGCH


Columns and labels:
[1] = target: T1, recombinant human BMP6 (Peprotech …); test: HTRF competition: unlabelled antibody titrated (11 points, top 3 µM) against labelled CL-58838 (10 nM) for binding to labelled human BMP6 (32 nM)
[2] = target: T2, human BMP6 (Peprotech), reduced monomer …; test: Western blot after reducing SDS-PAGE
Procedure: (§1) 2 μg/lane purified human BMP6 (Peprotech) separated by SDS-PAGE and stained with Coomassie blue (A) under reducing (R) and non-reducing (NR) conditions and Western blots from such gels blotted onto membranes and then probed with purified human anti-BMP6 antibodies as labelled.
(§2) Since BMP6 is a disulphide linked dimer the reducing condition should create monomers on the gel instead of dimers on the non-reduced gel.

[3] = target: T1, recombinant human BMP6 (Peprotech …); test: Western blot after non-reducing SDS-PAGE
Procedure: as §1, §2

Binder | binding result [1] | binding result [2] | binding result [3]
CL-58756 (antibody, human IgG4 S228P, kappa, V domains shown) VH: QVQLVESGGGLVKPGGSLRLSCAASGFTFSDYYMSWIRQAPGKGLEWVSYISISGSTIYYADSVKGRFTISRDNAKNSLYLQMNSLRAEDTAVYYCARRSSGWYDYWGQGTLVTVSS VL: EIVLTQSPGTLSLSPGERATLSCRASQSVSSNYLAWYQQKPGQAPRLLIYGASIRATGIPDRFSGSGSGTDFTLTISRLEPEDFAVYCCHQYGSSPPTFGQGTKVEIKR | binds | – | –
Antibody B (antibody, human IgG1, lambda, V domains shown, also called anti-BMP6 Antibody B) VH: QVQLVESGGGLVKPGGSLRLSCAASGFTFSSYVVHWVRQAPGKGLEWVGRIRLETHGYAAEYAASVKGRFTISRDDSKNTLYLQMNSLKTEDTAVYYCARVERSKSGFDNWGQGTLVTVSS VL: QSVLTQPPSVSGAPGQRVTISCTGSSSNIGAGYSVHWYQQLPGTAPKLLIYGQSERPSGVPDRFSGSKSGTSASLAITGLQAEDEADYYCQSWDSSQTLVVFGGGTKLTVLG | – | binds | binds

More lines, now with the values ahead:

binding result [1] | binding result [2] | binding result [3] | Binder
binds | – | – | CL-58713 (antibody, human IgG4 S228P, kappa, V domains shown) VH: QVQLVESGGGLVKPGGSLRLSCAASGFTFSDYYMSWIRQAPGKGLEWVSYISISGITIYYADSVKGRFTISRDNARNSLYLQMNSLRAEDTAVYYCARRSSGWYDYWGQGTLVTVSS VL: EIVLTQSPGTLSLSPGERATLSCRASQSVSYNYLAWYQQKPGQAPRLLIYGASIRATGIPDRFSGSGSGTDFTLTISRLEPEDFAVYCCHQYGSSPPTFGQGTKVEIKR
binds | – | – | CL-58722 (antibody, human IgG4 S228P, kappa, V domains shown) VH: QVQLVESGGGLVKPGGSLRLSCAASGFTFSDYYMSWIRQAPGKGLEWVSYISISGSTIYYADSVKGRFTISRDNAKNSLFLQMNSLRAEDTAVYYCARRSSGWYDYWGQGTLVTVSS VL: EIVLTQSPGTLSLSPGERATLSCRASQSVSSNYLAWYQQKPGQAPRLLIYGASIRATGIPDRFSGSGSGTDFTLTISRLEPEDFAVYSCHQYGSSPPTFGQGTKVEIKR
